Earlier results on one substance are cited in PMC13371949 (Journal of peptide science : an official publication of the …, 2025).

The conditions of data set [1]: previous work.

Consider glucagon [glucagon control], for which the isoelectric point entry is given as “near neutral”. Besides, the “solubility at pH 7” value (pH 7) is reported as “limited solubility”. Further, the “time to fibril formation in solution” value in data set [1] was ~ 11 hours.
